Experimental findings from publication PMC10841842, “Single-molecule quantitation of RNA-binding protein occupancy and stoichiometry defines a role for Yra1 (Aly/REF) in nuclear mRNP organization” (Cell reports, 2023) are described below.

The data set concerns the molecule itself. Nature of the data set: pull-down; mRNP-SiMPull: lysate of cryo-ground yeast cross-linked with 0.2% formaldehyde, PrA-tagged bait pulled down on rabbit IgG Dynabeads at 8°C for 10 min (mTBT16 buffer: 20 mM HEPES-KOH pH 7.4, 12.5 mM KOAc, 2 mM MgCl2, 0.5% Triton X-100, 0.1% Tween 20), eluted by HRV3C protease, captured on a slide by mNG, HA or Yra1 antibody, TIRF imaging; spot counts and photobleaching steps, no-PrA control subtracted ….

B1: Mft1, mNG-tagged (natural protein, S. cerevisiae, UniProt P33441 1-392, looked up)
chain: MPLSQKQIDQVRTKVHYSEVDTPFNKYLDILGKVTKLTGSIINGTLSNDDSKIEKLTEQNISQLKESAHLRFLDLQSSIDTKKVADENWETCQQETLAKLENLKDKLPDIKSIHSKLLLRIGKLQGLYDSVQVINREVEGLSEGRTSLVVTRAEWEKELGTDLVKFLIEKNYLKLVDPGLKKDSSEERYRIYDDFSKGPKELESINASMKSDIENVRQEVSSYKEKWLRDAEIFGKITSIFKEELLKRDGLLNEAEGDNIDEDYESDEDEERKERFKRQRSMVEVNTIENVDEKEESDHEYDDQEDEENEEEDDMEVDVEDIKEDNEVDGESSQQEDNSRQGNNEETDKETGVIEEPDAVNDAEEADSDHSSRKLGGTTSDFSASSSVEEVK
notes: Mft1, THO complex subunit, S. cerevisiae; also called THO complex subunit Mft1; source: S. cerevisiae BY4741/2-derived tagged strain, in cryo-ground cell lysate
A word on the stoichiometry N: it is a count of units in the complex or per binding partner. On to B1, for which the “stoichiometry N” value is 2.

B2: Hpr1-mNG (natural protein, S. cerevisiae, UniProt P17629 1-752, looked up)
chain: MSNTEELIQNSIGFLQKTFKALPVSFDSIRHEPLPSSMLHASVLNFEWEPLEKNISAIHDRDSLIDIILKRFIIDSMTNAIEDEEENNLEKGLLNSCIGLDFVYNSRFNRSNPASWGNTFFELFSTIIDLLNSPSTFLKFWPYAESRIEWFKMNTSVEPVSLGESNLISYKQPLYEKLRHWNDILAKLENNDILNTVKHYNMKYKLENFLSELLPINEESNFNRSASISALQESDNEWNRSARERESNRSSDVIFAADYNFVFYHLIICPIEFAFSDLEYKNDVDRSLSPLLDAILEIEENFYSKIKMNNRTRYSLEEALNTEYYANYDVMTPKLPVYMKHSNAMKMDRNEFWANLQNIKESDDYTLRPTIMDISLSNTTCLYKQLTQEDDDYYRKQFILQLCFTTNLIRNLISSDETRNFYKSCYLRENPLSDIDFENLDEVNKKRGLNLCSYICDNRVLKFYKIKDPDFYRVIRKLMSSDEKFTTAKIDGFKEFQNFRISKEKIPPPAFDETFKKFTFIKMGNKLINNVWKIPTGLDKIEQEVKKPEGVYEAAQAKWESKISSETSGGEAKDEIIRQWQTLRFLRSRYLFDFDKVNEKTGVDGLFEEPRKVEALDDSFKEKLLYKINQEHRKKLQDAREYKIGKERKKRALEEEASFPEREQKIKSQRINSASQTEGDELKSEQTQPKGEISEENTKIKSSEVSSQDPDSGVAGEFAPQNTTAQLENPKTEDNNAATSNISNGSSTQDMK
notes: Hpr1, THO complex component, S. cerevisiae; End of the tag read from the name; also called THO complex component Hpr1; source: S. cerevisiae BY4741/2-derived tagged strain, in cryo-ground cell lysate; not shown: mNeonGreen (mNG), C-terminal, kept
B2: the “stoichiometry N” value turned out to be 2.
